Experimental findings from PMC9351184, “Survey of the binding preferences of RNA-binding proteins to RNA editing events” are described below.

One data set addresses T1, ILF3 dsRBD (Homo sapiens, UniProt Q12906 398-590).
T1 sequence: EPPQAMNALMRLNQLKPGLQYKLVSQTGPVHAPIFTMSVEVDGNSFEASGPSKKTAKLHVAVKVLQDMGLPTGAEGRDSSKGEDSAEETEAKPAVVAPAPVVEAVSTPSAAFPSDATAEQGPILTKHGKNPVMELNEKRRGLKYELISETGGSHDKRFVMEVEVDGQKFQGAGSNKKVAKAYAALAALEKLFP
As to the kind of experiment: EMSA; 1 uM labelled RNA, 3 uM protein, 10 ul, on ice 45 min; 6% PAGE in 0.5x TBE (gel pre-run at 4 C); binding buffer, salt and pH not stated (proteins dialyzed in 25 mM Tris-HCl pH 8.0, 150 mM NaCl; final elution from cation exchange/heparin up to 1 M NaCl, then SEC). The conditions noted are these: protein: recombinant; tags: N-terminal GST (pGood6p), removed with TEV; label: 5' DY781. On the technique in general: In EMSA bound probe runs differently from free probe, usually more slowly.

Another data set addresses hnRNPC dsRBD (Homo sapiens, UniProt P07910 16-57). The data set is described as above. The conditions noted are these: protein: recombinant; tags: 10xHis (pSUMOH10), removed with TEV; label: 5' DY781.

hnRNPC dsRBD, sequence (P07910 16-57): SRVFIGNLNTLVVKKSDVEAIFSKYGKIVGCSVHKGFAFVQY

B1: edited RNA (ssRNA)
RNA: AGUGGCUUAUGCCUGUGAUCCCAACAC
modifications: A-to-I editing site represented by G as printed (A/G); inosine not stated
As to B1, the binding result with ILF3 dsRBD and with hnRNPC dsRBD was “binds” each time.
